Measured values as given in patent US20240400701A1 (LANOVA MEDICINES DEVELOPMENT, published 2024).

Target: T1, human AMHRII (anti-Mullerian hormone receptor type 2) (human, UniProt Q16671 18-573)
T1 construct: whole, on cells; also called AMHR2; human AMHR2
T1 sequence (looked up): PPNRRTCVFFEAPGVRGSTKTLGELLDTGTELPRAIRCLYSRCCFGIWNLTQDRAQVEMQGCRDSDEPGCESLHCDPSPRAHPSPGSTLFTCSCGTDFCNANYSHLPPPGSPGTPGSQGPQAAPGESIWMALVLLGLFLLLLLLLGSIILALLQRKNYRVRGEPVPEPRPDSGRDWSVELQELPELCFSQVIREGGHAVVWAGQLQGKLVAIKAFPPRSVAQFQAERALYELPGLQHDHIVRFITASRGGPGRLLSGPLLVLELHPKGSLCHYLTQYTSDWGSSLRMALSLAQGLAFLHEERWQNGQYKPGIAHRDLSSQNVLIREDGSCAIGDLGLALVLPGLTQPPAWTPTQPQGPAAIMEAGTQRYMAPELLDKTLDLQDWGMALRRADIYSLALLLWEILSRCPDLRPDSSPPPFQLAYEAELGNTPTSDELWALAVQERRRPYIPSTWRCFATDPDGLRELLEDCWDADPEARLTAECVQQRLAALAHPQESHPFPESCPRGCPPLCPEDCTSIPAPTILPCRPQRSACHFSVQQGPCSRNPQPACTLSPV
Experiment: FACS on CHO-K1 cells over-expressing human AMHR2
Description: CHO-K1 cells over-expressed AMHR2 were harvested from flasks. 100 μl of 1×10⁶ cells/ml of cells were incubated with the humanized antibodies in 3-fold serial dilutions starting from 300 nM to 0.001 nM for 30 minutes on ice. After being washed with 200 μl of FACS buffer twice, cells were incubated with secondary antibody for 30 minutes on ice. Cells were washed with 200 μl of FACS buffer twice and analyzed by FACS.

B1: 108F3D1E9 H2L2 hIgG1 (antibody, V domains shown)
VH: QLQLQESGPGLVKPSETLSLTCTVSGYSITSDFAWNWIRQPPGKGLEWMGYISFSGSTSYNPSLKSRVTISRDTSKNQFSLKLSSVTAADTAVYYCAGSRYSWFAYWGQGTLVTVSS
VL: DIQLTQSPSSLSASVGDRVTITCRASESVDTYGNSFMHWYQQKPGKPPKLLIYRASNLESGIPSRFSGSGSGTDFTLTISSLQPEDFATYYCQQSNEDPYTFGGGTKVEIK
notes: Humanized, human IgG1; also called 108F3D1E9 H2L2 hlgG1
EC50: 0.68 nM
Top (MFI): 67900 MFI

B2: 108F3D1E9 H1L2 hIgG1 (antibody, V domains shown)
VH: QLQLQESGPGLVKPSETLSLTCTVSGYSITSDFAWNWIRQPPGKGLEWIGYISFSGSTSYNPSLKSRVTISVDTSKNQFSLKLSSVTAADTAVYYCARSRYSWFAYWGQGTLVTVSS
VL: DIQLTQSPSSLSASVGDRVTITCRASESVDTYGNSFMHWYQQKPGKPPKLLIYRASNLESGIPSRFSGSGSGTDFTLTISSLQPEDFATYYCQQSNEDPYTFGGGTKVEIK
notes: Humanized, human IgG1; also called 108F3D1E9 H1L2 hlgG1
EC50: 0.82 nM
Top (MFI): 64600 MFI

B3: 108F3D1E9 H1L3 hIgG1 (antibody, V domains shown)
VH: QLQLQESGPGLVKPSETLSLTCTVSGYSITSDFAWNWIRQPPGKGLEWIGYISFSGSTSYNPSLKSRVTISVDTSKNQFSLKLSSVTAADTAVYYCARSRYSWFAYWGQGTLVTVSS
VL: DIVLTQSPSSLSASVGDRVTITCRASESVDTYGNSFMHWYQQKPGQPPKLLIYRASNLESGIPARFSGSGSGTDFTLTISSVQPEDFATYYCQQSNEDPYTFGGGTKVEIK
notes: Humanized, human IgG1; also called 108F3D1E9 H1L3 hlgG1
EC50: 0.82 nM
Top (MFI): 66700 MFI

B4: 108F3D1E9 H1L4 hIgG1 (antibody, V domains shown)
VH: QLQLQESGPGLVKPSETLSLTCTVSGYSITSDFAWNWIRQPPGKGLEWIGYISFSGSTSYNPSLKSRVTISVDTSKNQFSLKLSSVTAADTAVYYCARSRYSWFAYWGQGTLVTVSS
VL: DIVLTQSPSSLSVSVGDRATITCRASESVDTYGNSFMHWYQQKPGQPPKLLIYRASNLESGIPARFSGSGSRTDFTLTISSVQPEDFATYYCQQSNEDPYTFGGGTKLEIK
notes: Humanized, human IgG1; also called 108F3D1E9 H1L4 hlgG1
EC50: 0.88 nM
Top (MFI): 70900 MFI

B5: 108F3D1E9 H2L1 hIgG1 (antibody, V domains shown)
VH: QLQLQESGPGLVKPSETLSLTCTVSGYSITSDFAWNWIRQPPGKGLEWMGYISFSGSTSYNPSLKSRVTISRDTSKNQFSLKLSSVTAADTAVYYCAGSRYSWFAYWGQGTLVTVSS
VL: DIQMTQSPSSLSASVGDRVTITCRASESVDTYGNSFMHWYQQKPGKAPKLLIYRASNLESGVPSRFSGSGSGTDFTLTISSLQPEDFATYYCQQSNEDPYTFGGGTKVEIK
notes: Humanized, human IgG1; also called 108F3D1E9 H2L1 hlgG1
EC50: 0.55 nM
Top (MFI): 64400 MFI

B6: 108F3D1E9 H2L3 hIgG1 (antibody, V domains shown)
VH: QLQLQESGPGLVKPSETLSLTCTVSGYSITSDFAWNWIRQPPGKGLEWMGYISFSGSTSYNPSLKSRVTISRDTSKNQFSLKLSSVTAADTAVYYCAGSRYSWFAYWGQGTLVTVSS
VL: DIVLTQSPSSLSASVGDRVTITCRASESVDTYGNSFMHWYQQKPGQPPKLLIYRASNLESGIPARFSGSGSGTDFTLTISSVQPEDFATYYCQQSNEDPYTFGGGTKVEIK
notes: Humanized, human IgG1; also called 108F3D1E9 H2L3 hlgG1
EC50: 0.74 nM
Top (MFI): 67300 MFI

B7: 108F3D1E9 H2L4 hIgG1 (antibody, V domains shown)
VH: QLQLQESGPGLVKPSETLSLTCTVSGYSITSDFAWNWIRQPPGKGLEWMGYISFSGSTSYNPSLKSRVTISRDTSKNQFSLKLSSVTAADTAVYYCAGSRYSWFAYWGQGTLVTVSS
VL: DIVLTQSPSSLSVSVGDRATITCRASESVDTYGNSFMHWYQQKPGQPPKLLIYRASNLESGIPARFSGSGSRTDFTLTISSVQPEDFATYYCQQSNEDPYTFGGGTKLEIK
notes: Humanized, human IgG1; also called 108F3D1E9 H2L4 hlgG1
EC50: 0.65 nM
Top (MFI): 70600 MFI

B8: 31D9B3 VH1-VL2.1 hIgG1 (antibody, V domains shown)
VH: QVQLVQSGAEVKKPGASVKVSCKASGYTFTDYWVSWVRQAPGQGLEWMGEIYPKNGVSNFNEKFKGRVTMTTDTSTSTAYMELRSLRSDDTAVYYCARQRDYWGQGTLVTVSS
VL: DVVMTQSPLSLPVTLGQPASISCRSSQSLEYGSGYTYLEWYLQRPGQSPRLLIYGVSNRFSGVPDRFSGSGSGTDFTLKISRVEAEDVGVYYCFQATHDPNTFGQGTKLEIK
notes: Humanized, PTM de-risked (VL D(30C)S), human IgG1; also called 31D9B3 VH1-VL2.1 hlgG1
EC50: 5.52 nM
Top (MFI): 10400 MFI

B9: 31D9B3 VH1-VL2.3 hIgG1 (antibody, V domains shown)
VH: QVQLVQSGAEVKKPGASVKVSCKASGYTFTDYWVSWVRQAPGQGLEWMGEIYPKNGVSNFNEKFKGRVTMTTDTSTSTAYMELRSLRSDDTAVYYCARQRDYWGQGTLVTVSS
VL: DVVMTQSPLSLPVTLGQPASISCRSSQSLEYGTGYTYLEWYLQRPGQSPRLLIYGVSNRFSGVPDRFSGSGSGTDFTLKISRVEAEDVGVYYCFQATHDPNTFGQGTKLEIK
notes: Humanized, PTM de-risked (VL D(30C)T), human IgG1; also called 31D9B3 VH1-VL2.3 hlgG1
EC50: 0.331 nM
Top (MFI): 12500 MFI

B10: 31D9B3 VH1.1-VL2 hIgG1 (antibody, V domains shown)
VH: QVQLVQSGAEVKKPGASVKVSCKASGYTFTDYWVSWVRQAPGQGLEWMGEIYPKEGVSNFNEKFKGRVTMTTDTSTSTAYMELRSLRSDDTAVYYCARQRDYWGQGTLVTVSS
VL: DVVMTQSPLSLPVTLGQPASISCRSSQSLEYGDGYTYLEWYLQRPGQSPRLLIYGVSNRFSGVPDRFSGSGSGTDFTLKISRVEAEDVGVYYCFQATHDPNTFGQGTKLEIK
notes: Humanized, PTM de-risked (VH N54E), human IgG1; also called 31D9B3 VH1.1-VL2 hlgG1
EC50: 0.875 nM
Top (MFI): 16800 MFI

B11: 31D9B3 VH1.1-VL2.1 hIgG1 (antibody, V domains shown)
VH: QVQLVQSGAEVKKPGASVKVSCKASGYTFTDYWVSWVRQAPGQGLEWMGEIYPKEGVSNFNEKFKGRVTMTTDTSTSTAYMELRSLRSDDTAVYYCARQRDYWGQGTLVTVSS
VL: DVVMTQSPLSLPVTLGQPASISCRSSQSLEYGSGYTYLEWYLQRPGQSPRLLIYGVSNRFSGVPDRFSGSGSGTDFTLKISRVEAEDVGVYYCFQATHDPNTFGQGTKLEIK
notes: Humanized, PTM de-risked, human IgG1; also called 31D9B3 VH1.1-VL2.1 hlgG1
EC50: 89.7 nM
Top (MFI): 2170 MFI

B12: 31D9B3 VH1.1-VL2.2 hIgG1 (antibody, V domains shown)
VH: QVQLVQSGAEVKKPGASVKVSCKASGYTFTDYWVSWVRQAPGQGLEWMGEIYPKEGVSNFNEKFKGRVTMTTDTSTSTAYMELRSLRSDDTAVYYCARQRDYWGQGTLVTVSS
VL: DVVMTQSPLSLPVTLGQPASISCRSSQSLEYGDRYTYLEWYLQRPGQSPRLLIYGVSNRFSGVPDRFSGSGSGTDFTLKISRVEAEDVGVYYCFQATHDPNTFGQGTKLEIK
notes: Humanized, PTM de-risked, human IgG1; also called 31D9B3 VH1.1-VL2.2 hlgG1
EC50: 0.625 nM
Top (MFI): 14500 MFI

B13: 31D9B3 VH1.1-VL2.3 hIgG1 (antibody, V domains shown)
VH: QVQLVQSGAEVKKPGASVKVSCKASGYTFTDYWVSWVRQAPGQGLEWMGEIYPKEGVSNFNEKFKGRVTMTTDTSTSTAYMELRSLRSDDTAVYYCARQRDYWGQGTLVTVSS
VL: DVVMTQSPLSLPVTLGQPASISCRSSQSLEYGTGYTYLEWYLQRPGQSPRLLIYGVSNRFSGVPDRFSGSGSGTDFTLKISRVEAEDVGVYYCFQATHDPNTFGQGTKLEIK
notes: Humanized, PTM de-risked, human IgG1; also called 31D9B3 VH1.1-VL2.3 hlgG1
EC50: 145 nM
Top (MFI): 6580 MFI

B14: 94C4C3 H2L2 hIgG1 (antibody, V domains shown)
VH: QLQLQESGPGLVKPSETLSLTCTVSGYSITSDYAWNWIRQPPGKGLEWMGYISYSGSISYNPSLKSRITISRDTSKNQFSLKLSSVTAADTAVYYCARSRYSWFDYWGQGTLVTVSS
VL: EIVLTQSPGTLSLSPGERATLSCSASESVDTYGNSFMHWYQQKPGQPPRLLIYRASSLESGIPVRFSGSGSRTDFTLTISRLEPEDFAVYYCQQSNEDPYTFGGGTKVEIK
notes: Humanized, human IgG1; also called 94C4C3 H2L2 hlgG1
EC50: 1.42 nM
Top (MFI): 56600 MFI

B15: 94C4C3 H1L2 hIgG1 (antibody, V domains shown)
VH: QLQLQESGPGLVKPSETLSLTCTVSGYSITSDYAWNWIRQPPGKGLEWIGYISYSGSISYNPSLKSRVTISVDTSKNQFSLKLSSVTAADTAVYYCARSRYSWFDYWGQGTLVTVSS
VL: EIVLTQSPGTLSLSPGERATLSCSASESVDTYGNSFMHWYQQKPGQPPRLLIYRASSLESGIPVRFSGSGSRTDFTLTISRLEPEDFAVYYCQQSNEDPYTFGGGTKVEIK
notes: Humanized, human IgG1; also called 94C4C3 H1L2 hlgG1
EC50: 1.46 nM
Top (MFI): 49600 MFI

B16: 94C4C3 H1L3 hIgG1 (antibody, V domains shown)
VH: QLQLQESGPGLVKPSETLSLTCTVSGYSITSDYAWNWIRQPPGKGLEWIGYISYSGSISYNPSLKSRVTISVDTSKNQFSLKLSSVTAADTAVYYCARSRYSWFDYWGQGTLVTVSS
VL: EIVLTQSPGTLSLSPGERATLSCSASESVDTYGNSFMHWYQQKPGQPPRLLIYRASSLESGIPVRFSGSGSRTDFTLTISRVEAEDFAVYYCQQSNEDPYTFGGGTKLEIK
notes: Humanized, human IgG1; also called 94C4C3 H1L3 hlgG1
EC50: 1.45 nM
Top (MFI): 50200 MFI

B17: 94C4C3 H1L4 hIgG1 (antibody, V domains shown)
VH: QLQLQESGPGLVKPSETLSLTCTVSGYSITSDYAWNWIRQPPGKGLEWIGYISYSGSISYNPSLKSRVTISVDTSKNQFSLKLSSVTAADTAVYYCARSRYSWFDYWGQGTLVTVSS
VL: DIVLTQSPGTLSVSPGERATLSCSASESVDTYGNSFMHWYQQKPGQPPKLLIYRASSLESGIPVRFSGSGSRTDFTLTISRVEAEDFAVYYCQQSNEDPYTFGGGTKLEIK
notes: Humanized, human IgG1; also called 94C4C3 H1L4 hlgG1
EC50: 1.21 nM
Top (MFI): 47200 MFI

B18: 94C4C3 H2L1 hIgG1 (antibody, V domains shown)
VH: QLQLQESGPGLVKPSETLSLTCTVSGYSITSDYAWNWIRQPPGKGLEWMGYISYSGSISYNPSLKSRITISRDTSKNQFSLKLSSVTAADTAVYYCARSRYSWFDYWGQGTLVTVSS
VL: EIVLTQSPGTLSLSPGERATLSCSASESVDTYGNSFMHWYQQKPGQAPRLLIYRASSLESGIPDRFSGSGSGTDFTLTISRLEPEDFAVYYCQQSNEDPYTFGGGTKVEIK
notes: Humanized, human IgG1; also called 94C4C3 H2L1 hlgG1
EC50: 1.31 nM
Top (MFI): 52800 MFI
